Protein production data for 15 sequences are collected here from a protein production outcome set (Wang et al. 2014).

The series is described as follows: label from the status in PepcDB records.
As for “MQGHHAAARALRRQGRLGEAIARYRAALAATPGAAVLQAEMAECLFAAGQAEAAVKALGQAVRLDPDNATHRGNLAMLLARKGDLAGAIDHARAAVRLAPKDGALRLRLARLLIAAGHPREAEAEALDATRRLPREAASWIALAGARLLDQRPNDAEAPSARALALAPNDAEALSLRTDLLLSLGRLAEAEATARLALKRQPTSLAALVALSKAKTFRPDDPDWPALAALLPSLGERSAEEAVKLHFASAKALEDMGRDDEAFAHYQAGNSLKGRGLPDELPALSAMVDSLERWTPKLRPVGEGDPLPVFIVGMPRSGTTLVEQILDRHRAIHGAGEILLFGERVVANGLGGYSADPQGLDPERLAALGADYRDRLRGLAPRAGRIINKTPGNWLHLGLIAAALPGARIIWCRRDPVDCCLSCFRNLFGQGHAWTTDLGRAGRYYRLQERLTGHWQAVLGDERMTAVDYEALVADPEAEARRLVAHLGLEWDEACLDHTRGGRAVTTLSQVQVRQPITDASVGRGRRFQTHLGPLLTALDGR”, the protein production result is on record as “failed”.
As to “MASTVSVQPGRIRILKKGSWQPLDQTVGPVVYWMFRDQRLKDNWALIHAVDLANRTNAPVAVVFNLFDQFLDAKARQLGFMLKGLRQLHHQIDSLQIPFFLLQGDAKETIPNFLTECGASHLVTDFSPLREIRRCKDEVVKRTSDSLAIHEVDAHNVVPMWAASSKLEYSARTIRGKINKLLPDYLIEFPKLEPPKKKWTGMMDKKLVDWDSLIDKVVREGAEVPEIEWCVPGEDAGIEVLMGNKDGFLTKRLKNYSTDRNNPIKPKALSGLSPYLHFGQVSAQRCALEARKVRSTSPQAVDTFLEELIVRRELSDNFCYYQPHYDSLKGAWEWARKSLMDHASDKREHIYSLEQLEKGLTADPLWNASQLEMVYQGKMHGFMRMYWAKKILEWTKGPEEALSISIYLNNKYEIDGRDPSGYVGCMWSICGVHDQGWKERPVFGKIRYMNYAGCKRKFNVDSYISYVKSLVSVTKKKRKAEEQLTRDSVDPKITIV”, the protein production result is “failed”.
“MSKFDGYFLRQLLVLCGFFAFVLVGVFWISKAVSLFDRLISSGQTAMVALEFTALTLPTLVRTVMPMAAFCATVYVTNRLNRESEMTVMLATGSSPFRLARPVILFGLVCAAMLATITLYLRPAAMLRLEARQAEVAGDMTAQLLNDGQFMHPVKGVTVYIGKIDRDGTLNDVYLSDRRAPERVVTYTSSKAFLARSGEQIALVMVEGTALQMETGRRTLSTTVFRDFSYDISALAKRDIERRQDIRGMPTLALATAFDGEGLAETYSRGEISEELQERLSWIGVSVAVTLIGFSTLMLGTFSRFGLWPQLIAAFAGLIALEGMRSTATAFVGSHPGLWWVQHAPALGGIALSILFLKLAGRPLRLRRYPDTGSV”: the protein production entry is given as “failed”.
To “MGSSHHHHHHSSGRENLYFQGGAGTSAAMRQATSPKTILEYIINFFTCGGIRRRNETQYQELIETMAETLKSTMPDRGAPLPENIILDDMDGCRVEFNLPGENNEAGQVIVRVSKGDHSETREIPLASFEKICRALLFRCEFSLPQDSVILTAQGGMNLKGAVLTGANLTS” belongs “not failed”; to “MSLGKRMGAELIGTFWLVLGGCGSAVLAASSPLGIGVLGVAFAFGLTVLTMAFAIGHISGCHLNPAVSFGLVVGGRFPAKELLPYVIAQVIGAILAAGVIYLIASGKAGFELSAGLASNGYADHSPGGYTLGAGFVSEVVMTAMFLVVIMGATDARAPAGFAPIAIGLALTLIHLISIPVTNTSVNPARSTGPALFVGGWALQQLWLFWVAPLIGAAIGGALYRGLAKEP”, “failed”.
As for “MIITVASFKGGVGKTTTAVHLSAYLALQGETLLIDGDPNRSATGWGKRGSLPFKVVDERQAAKYAPKYQNIVIDTQARPEDEDLEALADGCDLLVIPSTPDALALDALILTIETLQKLGNNRFRILLTIIPPYPSKDGDEARQLLTTAGLPLFKRGIKRYSAFQKASLNGVVVSEVSDSKAGIAWSDYKATGKEIVEEILILEHHHHHH”, the protein production result is “not failed”.
As for “MLNLSSIMKPNEIMKNWIDPEAKAEAERYDNPIPSRTLILTTLEQLDLPQSHAELVDHFDIHDQKSIDALSHRLIAMVRDGQLSKDGFKFQPIGEQPTFDATVYINNKGFGSAHIDGQNDLLLPERELRLVFNGDRVKVRQTSVDRKGKAWGFITEVTQHRVKQLIGKLAVHEGEYFLQPSAPNAHQPIPLEKELIEHAQAKVGENLRVAIDDYPTREEFSTGHIIQSMSDKADTEIIIPQTILEFGLPYEFPEEVVKDAESFKEPSKKDIEGRIDLRDLPLVTIDGEDARDFDDAVYAEKRSGGGYRVVVAIADVSHYVRLGKPLDDEAQERGTSVYFPHFVLPMLPEALSNGLCSLNPHVDRLCMVCDLKLSRAGRVMSYEFYPSVMHSKARLTYTQVGNYFDGQTDAIPDDKNIQKSLNTLFQLYQTLKGLRAKRHAMEFETIETYMTFDELGGIKEILPRTRNEAHKLIEECMLLANVAAAEFSLQHDIPMLYRVHEAPEFSRIQKVKDFVKLLGLPFPDQPTQADYQRVIEATKDRIDAPSIHAVLLRSMMQAYYGAKNAGHYGLAYEAYTHFTSPIRRYPDLLLHRAIKAHLQQKPYPLSGAALDDAGEQFSRTERRADEASRSVTTWLKCHYMKQHLGEEFIGIISAVTEFGLFVTLKDLYVDGMIHVSQLGDDFFLYDQASQSLVGQNRGQIFGLGDEVKIKVAAVNLDERKIDFELMQQITHAGRVIRQKAPRSSKTQATEQVFNVPSETTSTQERDTRKKEKSKSKPSSYAKKSAKKSSPASVSKPVKEKKKVKVKKKKSNAKPKSE”, the entry is “failed”; as for “MTAENSATPDYRRNVGAVADALLAHPGPIVVLSHENPDGDALGSVLGLSRALRTLGKTVLAPMTVPHYLSFLPQPGELTAPLESWPQGALAAVLDVDNNDPVRVAGADLTQFDGPVVNVDHHGTNLRRADAGVVDPSKPAAAMMVADVIDALGAPWSEAVATPLMLGLNTDTGNFAFDSVSAETFECAARLRAHGARIGWLNDQMRQNPQSYYLLLREVLGKLEFLHGGRVVQTRVDEEMLARAGATWEQVENYVSMLRNAEGAQLAVMAKDYGDRVKFSLRSRGPVSAQNIAVALGGGGHVPAAGATVISSYAEARARLDAAIEAELARVDAQATAE”, “failed”.
As for “MPRITTDTIIADVLRIDRGTIPIFLNNGLHCLGCPSAQGESIEEACALHGIDAQKLVDELNEYLKSKGLLDLEHHHHHH”, the protein production result is given as “not failed”.
Regarding “MITLEKEKVTVNPDIKVIKRDGRMVTFDSSKIYEAILKASETITPITPLIETKLEEIANRVVAEINDRFSHNIKIYEIQSIVEHELLEANEYAIAQEYINYRTKRDFERSQATDINFTINKLV”, the protein production entry is “failed”.
To “MTDLIYNDPDFVQFYDIENQDGRADFDYCVRLARDGGSVLDLGCGTGQLAAEMAQGCNVTGVDPASAMLDVARRRTGGDKVDWVVADARTVRLGRRFDLVLLTGHVFQVFLTDEDQRAVLRTIAEHLGPGGRFIFDTRNPAVEAWLEWTPQRSERMVEHPSLGTVRAWYDADWDAASAVVTYSTFYEIPGGRPILGAESKIAFPKKQDLAGMLDDAGLLVEQWLGDWQGEPYADTSPEIIPIGRLR” belongs “failed”; to “MSLVEATLEVIGGKWKCVILCHLTHGKKRTSELKRLMPNITQKMLTQQLRELEADGVINRIVYNQVPPKVEYELSEYGRSLEGILDMLCAWGANHINRVEGHHHHHH”, “not failed”; to “MIKLLLLDVDGTLTDGSLYFDENFHEIKAFNVKDGLGMTLWQKLGKKIAIITGRTSIMVKKRMESLGVQFVFMGVENKNTVIERLKKDLQLSAQEIACVGDDYNDLGMFKACALSFAPFDAHPLLKSKAYKVLQNSGGKGAVREAIDYLLTLEGLQDEALKLYL”, “failed”.
“MSDLLPLISVYGYVAALLLISEKTLKNEVVSRKFLHIMVGNIAFILPFFESRFVMAFLAAFPFVVLTFLMSPHSPVKLSSRTSVAGHGLGLVYYSIAWTVLAYAFFDRPDVIAVGIMAMSYGDGLASLIGGRYGKRKFRILGDEKSLEGSVAMFLGCVASFSVVSLYYHGSAGPLLLPLAAFATVVEAVTPKGLDNLSVSILTAILYFWMA”: the protein production entry is recorded as “failed”.
With “TSKQRYSGKVHLCVARYSYNPFDGPNENPEAELPLTAGKYLYVYGDMDEDGFYEGELLDGQRGLVPSNFVDFVQDNESRLAST”, the protein production entry is “not failed”.
